{"source": "patent US11549134B2", "about": "“Modified amadoriase and method for producing the same, agent for improving surfactant resistance of amadoriase and composition for measuring HbA1c using the same” (Kikkoman Corporation, priority 2013, dated 2023)", "molecules": {"B1": {"name": "CFP-T7: amadoriase derived from the genus Coniochaeta, SEQ ID NO: 1; triple variant with mutations at positions 272, 302 and 388 (protein, listed as Coniochaeta sp.)", "chain": "MTSNRADTRVIVVGGGGTIGSSTALHLVRSGYAPANITVLDTFEIPSAQSAGHDLNKIMGIRLRNKVDLQMSLEARQMWKEDELFQPFFHNTGRMDCEHTPEGIEDLKKQYQALHDAGAGLEKTHAWLDNEDEILSKMPLLQRDQIQGWKAIWSQDGGWLAAAKAINAIGQFLKERGVKFGFGGAGSFKQPLFDDEGTTCIGVETADGTKYYADKVVLAAGAWSPTLVDLEDQCCSKAWVYAHIQLTPEEAAEYKGVPVVYNGEFGFFFEPDEFGVIKVCDEFPGFSRFKEHQPYGAPSPKRISVPRSHAKHPTDTYPDASEVSIKKAIATFLPRFQDKELFNRALCWCTDTADAALLMCEHPKWKNFILATGDSGHSFKILPNVGKYVVELIEGRLPEEMAYQWRWRPGGDALKSRRAAPPKDLADMPGWKHDPKL"}}, "key": {"CFP-T7": {"tested_on": "CFP-T7", "assay": "Surfactant resistance of amadoriase during addition of each stabilizer (CFP-T7)", "assay_type": "biochemical, genus Coniochaeta", "details": "Stabilizer None, 500 mM HEPES (pH 7.0), 0.01% CTAC", "description": "In the above surfactant resistance measuring method, various stabilizers are added and the residual activity of an amadoriase is measured in order to evaluate the effect of the stabilizers. […] The concentration sufficient to provide a buffer capacity to a solution refers to the concentration at which pH is maintained within a predetermined range (for example pH5 to 10, pH6 to 8) without having pH change due to other reagents added to the solution. A concentration insufficient to provide a buffer capacity to a solution refers to the concentration at which pH changes by addition of other reagents to the solution and pH falls outside a particular range. These concentrations vary depending upon the type and amount of other reagents to be added to a solution; however, a person skilled in the art can appropriately determine the concentration by conventional methods. Other conditions and procedure can be the same as in the above surfactant resistance measuring method.\nIt was studied whether or not the addition of any of various stabilizers enhanced the surfactant resistance of an amadoriase. Phosphoric acid, a tricarboxylic acid (e.g., citric acid), a dicarboxylic acid (e.g., malic acid, maleic acid, citraconic acid, malonic acid, glutaric acid, or tartaric acid), a monpcarboxylic acid (e.g., acetic acid), MES, MOPS, MOPSO, or ammonium sulfate was used as a stabilizer. As a Comparative Example, CHES was used. To prevent change in pH when adding the stabilizer, 500 mM HEPES (pH 7.0) was used as a buffer solution; CFP-T7 purified as described above was used as a sample; the final concentration of CTAC was set at 0.01%; and any of the stabilizers was further added to evaluate the surfactant resistance of CFP-T7 according to the measurement method for surfactant resistance in Example 1. Using a 500 mM HEPES (pH 7.0) buffering agent and CFP-D2 purified as described above as a sample, any of the stabilizers was further added, and the surfactant resistance of CFP-D2 was evaluated according to the measurement method for surfactant resistance in Example 1 although under more harsh surfactant treatment conditions in which the final concentration of CTAC was set at 0.08% and the treatment temperature at 37° C."}, "[1]": {"assay": "Surfactant resistance (residual activity) of purified enzymes with various surfactants", "assay_type": "biochemical", "details": "20 mM potassium phosphate pH 7.0, purified enzyme", "description": "(§1) An amadoriase crude enzyme solution or an amadoriase purified sample is diluted with a 30 mM MES/21 mM Tris buffer solution (pH6.5) so as to have a concentration of about 1.0 U/ml. To this, CTAC (for example, manufactured by Tokyo Kasei Kogyo Co., Ltd.) is added so as to obtain a final concentration 0.01% (w/v) or 0.04%. The resultant mixture is heated at 30° C. for 5 minutes. After heating, the mixture is diluted double with a 10 mM phosphate buffer (pH7.0) containing 0.15% BSA to prepare a sample. The enzyme activities of the sample before and after a surfactant treatment are measured by the method described in Section B above. The ratio of activity of the sample after the surfactant treatment relative to the activity of the sample before the surfactant treatment (regarded as 100), i.e., the residual activity (%), is obtained. In this manner, surfactant resistance is evaluated.\nUsing various surfactants, the stability of the purified enzymes CFP-T7, CFP-D2, and CFP-D7 obtained as described above was evaluated. The surfactant resistance of the modified amadoriases was evaluated in accordance with a measurement method for surfactant resistance according to Example 1 although under surfactant treatment conditions in which the amadoriases were each diluted in a 20 mM potassium phosphate buffer solution (pH 7.0) and mixed with any of various concentrations of the surfactants. In this respect, it was confirmed that when the warmed sample was again measured for activity 30 minutes after 2-fold dilution in a BSA solution, there was no change in the activity value."}, "[2]": {"assay": "Surfactant resistance (residual activity) of CFP-T7 single variants, 0.01% CTAC", "assay_type": "biochemical", "details": "30°C, 5 minutes, 30 mM MES/21 mM Tris buffer (pH6.5), crude enzyme", "description": "Reagent 1 (2.7 ml), reagent 2 (100 μl) and reagent 3 (100 μl) were mixed and preheated at 37° C. for 5 minutes. Then, to the mixture, an enzyme solution (100 μl) was added and thoroughly mixed. Thereafter, the absorbance of the mixture at 555 nm is measured by a spectrophotometer (U-3010, manufactured by Hitachi High-Technologies). Measurement is performed at 555 nm from one minute to three minutes and an absorbance change per minute is specified as the measurement value. A control solution is prepared in the same manner as above except that ion-exchanged water (100 μl) is used in place of reagent 3 (100 μl).\nas §1, with “The ratio of activity of the sample after the surfactant treatment relative to the activity of the sample before the surfactant treatment (regarded as 100), i.e., the residual activity (%), is obtained.” left out, “evaluated. […]” for “evaluated.”"}}}
{"molecule": "B1", "values": [{"measurement": "CFP-T7 Residual Activity (%)", "setting": "CFP-T7; Table 9-1", "result": 4.7, "unit": "%"}, {"measurement": "CFP-T7 Residual Activity (%)", "setting": "CFP-T7; Table 9-2", "result": 3.1, "unit": "%"}, {"measurement": "Residual Activity(%)", "setting": "[1]; Benzylcetyldimethyl ammonium Chloride (BCDAC) 0.04%", "result": 1.4, "unit": "%"}, {"measurement": "Residual Activity(%)", "setting": "[1]; Benzyldodecyldimethyl ammonium Bromide (BDDAB) 0.10%", "result": 1.4, "unit": "%"}, {"measurement": "Residual Activity(%)", "setting": "[1]; Benzyltetradecyldimethyl ammonium Chloride (BDTAC) 0.04%", "result": 0.7, "unit": "%"}, {"measurement": "Residual Activity(%)", "setting": "[1]; Dodecylpyridinium Chloride (1-DPC) 0.16%", "result": 3.4, "unit": "%"}, {"measurement": "Residual Activity(%)", "setting": "[1]; Dodecyltrimethylammonium Bromide (DTAB) 0.30%", "result": 12.2, "unit": "%"}, {"measurement": "Residual Activity(%)", "setting": "[1]; Hexadecylpyridinium Bromide (1-CPB) 0.04%", "result": 0.7, "unit": "%"}, {"measurement": "Residual Activity(%)", "setting": "[1]; Hexadecylpyridinium Chloride (1-CPC) 0.04%", "result": 1.4, "unit": "%"}, {"measurement": "Residual Activity(%)", "setting": "[1]; Hexadecyltrimethylammonium Chloride (CTAC) 0.04%", "result": 2.3, "unit": "%"}, {"measurement": "Residual Activity(%)", "setting": "[1]; N-Cetyl-4-methylpyridinium Chloride (4Me-1-CPC) 0.04%", "result": 1.5, "unit": "%"}, {"measurement": "Residual Activity(%)", "setting": "[1]; Octadecyltrimethylammonium Bromide (STAB) 0.01%", "result": 59.7, "unit": "%"}, {"measurement": "Residual Activity(%)", "setting": "[1]; Octadecyltrimethylammonium Chloride (STAC) 0.02%", "result": 49.3, "unit": "%"}, {"measurement": "Residual Activity(%)", "setting": "[1]; Octyltrimethylammonium Bromide (OTAB) 0.80%", "result": 87.7, "unit": "%"}, {"measurement": "Residual Activity(%)", "setting": "[1]; Octyltrimethylammonium Chloride (OTAC) 1.20%", "result": 94.1, "unit": "%"}, {"measurement": "Residual Activity(%)", "setting": "[1]; Tetradecyltrimethylammonium Bromide (TTAB) 0.04%", "result": 31.7, "unit": "%"}, {"measurement": "Residual Activity(%)", "setting": "[1]; Tetradecyltrimethylammonium Chloride (TTAC) 0.04%", "result": 4.1, "unit": "%"}, {"measurement": "Residual Activity(%)", "setting": "[1]; Tributylhexadecyl phosphonium Bromide (TBCPB) 0.04%", "result": 3.1, "unit": "%"}, {"measurement": "Residual Activity(%)", "setting": "[2]", "result": 69.9, "unit": "%"}]}
